Measured values published in patent publication US20250154236A1, “PREVENTION AND TREATMENT OF HEADACHES” (GlaxoSmithKline Intellectual Property (No. 3) Limited, priority 2022, published 2025).
Like-named read-outs stand apart in the source and are kept apart here.

What was measured:
[1] = system: adult rat trigeminal ganglia neurons; assay: CGRP release from cultured rat trigeminal ganglia neurons (ELISA); format: cell-based
Procedure: (§1) TG Cultures were prepared from 8-10-week Sprague-Dawley rats. Following cervical dislocation and cardiac cessation, trigeminal ganglia (TG) were dissociated and collected in ice cold HBSS buffer. TGs were digested in 20 U/ml papain for 20 min followed by another 20-min enzymatic digestion in 2% Collagenase Type 4 and Dispase II in 37° C. water bath. Digested TG ganglia were suspended in Leibovitz's L15 medium containing 10% Fetal Bovine Serum, 1% penicillin/streptomycin, 18.5 mM NaHCO3, 38 mM glucose. Cell suspensions were filtered in a 70 μm then a 40 μm cell strainer and were layered onto Leibovitz's L15 medium containing 4% BSA cushion followed by slow speed centrifuge at 100 g, 10 min. Cell pellets were suspended with DMEM medium containing 10% Fetal Bovine Serum and 1% penicillin/streptomycin. Cells were plated onto 96-well plates and cultured for 24 hours at 37° C., 5% CO2. Recombinant rat artemin protein and vehicle control buffer were added into appropriate wells for 24-hour pre-incubation as needed. For experiments testing the effect of an anti-artemin antibody or RET inhibitor, these agents were added to the TG culture simultaneously with artemin for 24 h for CGRP and SP assay or 48 h for PACAP assay. After 24 h or 48 h incubation, cell culture medium was removed and assay buffer containing TRPV1 agonist capsaicin (CAP) or TRPA1 agonist allyl isothiocyanate (AITC) were added into wells and incubated at 37° C., 10 min to trigger neuropeptide release. At the end of stimulation, the supernatant was collected and CGRP and SP content were measured using ELISA assay kits (Bertin Bioreagent). For PACAP assay, cells were cultured and pre-incubated with artemin for 48 hours prior to agonist stimulation to trigger PACAP release. PACAP content in supernatant was measured using an in-house developed ELISA assay.

[2] = system: adult rat trigeminal ganglia neurons; assay: as above; format: cell-based; conditions: Neuron, 0.5 h
[3] = system: rat (preclinical migraine model); assay: Artemin dural infusion study, periorbital von Frey sensitivity; format: in vivo; conditions: local dural infusion daily for five consecutive days, 0.018, 0.18 and 1.8 μg; versus vehicle, first two weeks
Procedure: Briefly, three different doses of rat artemin protein, inflammatory soup cocktail and vehicle buffer were administered daily via a stainless-steel cannula (22GA, Plastics One) embedded onto dura for 5 consecutive days to produce persistent facial hypersensitivity. Sensory testing occurred during the day using von Frey filaments with reproducible calibrated buckling forces varying from 0.4-10 g utilizing the simplified Chaplan up-and-down method. Allodynia was tested by perpendicularly touching the periorbital region causing slight buckling of the filament for approximately 5 seconds. The periorbital withdrawal threshold (g) was calculated based on the response pattern and the force of the final filament. The periorbital threshold data was recorded on the side of artemin, Inflammatory Soup Cocktail, or vehicle infusion only.

rat TG neurons [4] = assay: Substance P release from cultured rat trigeminal ganglia neurons (ELISA); format: cell-based; conditions: artemin pre-incubation
Procedure: as §1, with “For experiments testing the effect of an anti-artemin antibody or RET inhibitor, these agents were added to the TG culture simultaneously with artemin for 24 h for CGRP and SP assay or 48 h for PACAP assay. After 24 h or 48 h incubation, cell culture medium was removed and assay buffer containing TRPV1 agonist capsaicin (CAP) or TRPA1 agonist allyl isothiocyanate (AITC) were added into wells and incubated at 37° C., 10 min to trigger neuropeptide release.” left out, “For PACAP assay, cells were cultured and pre-incubated with artemin for 48 hours prior to agonist stimulation to trigger PACAP release.” left out

rat TG neurons [5] = assay: PACAP release from cultured rat trigeminal ganglia neurons (in-house ELISA); format: cell-based; conditions: artemin treatment for 48 hours
Procedure: as §1, with “For experiments testing the effect of an anti-artemin antibody or RET inhibitor, these agents were added to the TG culture simultaneously with artemin for 24 h for CGRP and SP assay or 48 h for PACAP assay. After 24 h or 48 h incubation, cell culture medium was removed and assay buffer containing TRPV1 agonist capsaicin (CAP) or TRPA1 agonist allyl isothiocyanate (AITC) were added into wells and incubated at 37° C., 10 min to trigger neuropeptide release.” left out, “For PACAP assay, cells were cultured and pre-incubated with artemin for 48 hours prior to agonist stimulation to trigger PACAP release.” left out

Molecule: COc1cc(CNC(=O)CCCC/C=C/C(C)C)ccc1O [CAP, capsaicin, reference compound]
- EC50 ([1]; Neuron, CAP+ARTN (24 h), 10 ng/ml rat artemin, read-out: EC50 of CAP for CGRP release): 20.2 nM
- EC50 ([1]; Rattus norvegicus, Neuron, CAP alone, no artemin, read-out: EC50 of CAP for CGRP release): 21.6 nM
- EC50 ([2]; CAP+ARTN (30 min), 10 ng/ml rat artemin, read-out: EC50 of CAP for CGRP release): 17.9 nM

Molecule: C=CCN=C=S [AITC, allyl isothiocyanate, reference compound]
- EC50 ([1]; Rattus norvegicus, Neuron, 24 h, read-out: EC50 of AITC for CGRP release): 6940 nM
- EC50 ([1]; Rattus norvegicus, Neuron, read-out: EC50 of AITC for CGRP release): 17800 nM
- EC50 ([2]; Rattus norvegicus, read-out: EC50 of AITC for CGRP release): 6600 nM

B1: artemin: Recombinant rat artemin protein, member of GDNF ligand family (protein)
chain: AGTRSSRARATDARGCRLRSQLVPVSALGLGHSSDELIRFRFCSGSCRRARSPHDLSLASLLDAGALRSPPGSRPISQPCCRPTRYEAVSFMDVNSTWRTVDHLSATACGCLG
- EC50 for artemin-potentiation of CGRP release ([1]; AITC stimulation, 24 hours of treatment): 0.092 ng/mL
- EC50 ([1]; AITC stimulation, 24 hours of treatment, read-out: EC50 for artemin-potentiation of CGRP release): 0.0038 nM
- artemin concentration reaching maximal effect on stimulated CGRP release ([1]; CAP and AITC fixed at ~EC50, artemin range 0.001 to 100 ng/ml): 1 ng/mL
- EC50 for artemin-potentiation of CGRP release ([1]; CAP stimulation, 24 hours of treatment): 0.028 ng/mL
- periorbital sensitivity to mechanical stimulation [3]: significantly increased
- effect on CAP- and AITC-stimulated Substance P (SP) release (rat TG neurons [4]): dose-dependently increased
- effect on CAP- and AITC-stimulated PACAP release (rat TG neurons [5]): potentiated
